Test system: Escherichia coli TOP10
Experiment: shrunken log2 fold change of peptide-encoding DNA abundance (4.5 h post-induction vs induction); higher = less antimicrobial activity (less host growth inhibition)
Settings: time post-induction: 4.5 h; library: site-saturation at positions 5, 18, 19, 20
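Note: peptides expressed intracellularly from a pBAD plasmid library in pooled LB shake-flask culture, induced with 0.3% L-arabinose, DNA abundance read by NGS, three biological replicates, DESeq2 with apeglm shrinkage.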

## RRIRHRPPRLPRPRPRPEASPRP
  shrunken log2 fold change: 0.0128

## RRIRYRPPRLPRPRPRPCVFPRP
  shrunken log2 fold change: -0.123

## RRIRDRPPRLPRPRPRPAKHPRP
  shrunken log2 fold change: 0.0985

## RRIRSRPPRLPRPRPRPTKWPRP
  shrunken log2 fold change: -0.0872

## RRIRNRPPRLPRPRPRPIKGPRP
  shrunken log2 fold change: -0.104

## RRIRWRPPRLPRPRPRPHMCPRP
  shrunken log2 fold change: -0.00659

## RRIRWRPPRLPRPRPRPTHNPRP
  shrunken log2 fold change: 0.0181

## RRIRCRPPRLPRPRPRPPITPRP
  shrunken log2 fold change: -0.286

## RRIRERPPRLPRPRPRPYHIPRP
  shrunken log2 fold change: -0.212

## RRIRERPPRLPRPRPRPSKTPRP
  shrunken log2 fold change: -0.0833

## RRIRERPPRLPRPRPRPTFHPRP
  shrunken log2 fold change: -0.0533

## RRIRNRPPRLPRPRPRPTLCPRP
  shrunken log2 fold change: 0.00464

## RRIRFRPPRLPRPRPRPTNYPRP
  shrunken log2 fold change: -0.587

## RRIRYRPPRLPRPRPRPHFDPRP
  shrunken log2 fold change: 0.144

## RRIRGRPPRLPRPRPRPDKYPRP
  shrunken log2 fold change: -0.136

## RRIRTRPPRLPRPRPRPPRHPRP
  shrunken log2 fold change: 0.152

## RRIRPRPPRLPRPRPRPGYVPRP
  shrunken log2 fold change: -0.401

## RRIRQRPPRLPRPRPRPIKHPRP
  shrunken log2 fold change: -0.12

## RRIRKRPPRLPRPRPRPIDFPRP
  shrunken log2 fold change: 0.131

## RRIRIRPPRLPRPRPRPCRFPRP
  shrunken log2 fold change: -0.0104

## RRIRMRPPRLPRPRPRPIRCPRP
  shrunken log2 fold change: 0.086

## RRIRMRPPRLPRPRPRPISSPRP
  shrunken log2 fold change: -0.0416

## RRIRIRPPRLPRPRPRPVPEPRP
  shrunken log2 fold change: -0.138

## RRIRKRPPRLPRPRPRPGAPPRP
  shrunken log2 fold change: 0.85

## RRIRRRPPRLPRPRPRPAEAPRP
  shrunken log2 fold change: 0.148

## RRIRERPPRLPRPRPRPRYQPRP
  shrunken log2 fold change: -0.227

## RRIRRRPPRLPRPRPRPAMCPRP
  shrunken log2 fold change: 0.319

## RRIRARPPRLPRPRPRPVAFPRP
  shrunken log2 fold change: 0.457

## RRIRKRPPRLPRPRPRPNLCPRP
  shrunken log2 fold change: 0.118

## RRIRNRPPRLPRPRPRPILLPRP
  shrunken log2 fold change: -0.103

## RRIRWRPPRLPRPRPRPRHYPRP
  shrunken log2 fold change: 0.00846

## RRIRARPPRLPRPRPRPKKIPRP
  shrunken log2 fold change: 0.489

## RRIRQRPPRLPRPRPRPLPDPRP
  shrunken log2 fold change: 0.0466

## RRIRVRPPRLPRPRPRPQDAPRP
  shrunken log2 fold change: -0.443

## RRIRHRPPRLPRPRPRPIKIPRP
  shrunken log2 fold change: -0.62

## RRIRSRPPRLPRPRPRPDTFPRP
  shrunken log2 fold change: 0.024

## RRIRYRPPRLPRPRPRPLHMPRP
  shrunken log2 fold change: -0.116

## RRIRDRPPRLPRPRPRPKVFPRP
  shrunken log2 fold change: 0.0612

## RRIRVRPPRLPRPRPRPKFQPRP
  shrunken log2 fold change: -0.274

## RRIRARPPRLPRPRPRPELMPRP
  shrunken log2 fold change: 1.19

## RRIRLRPPRLPRPRPRPRFNPRP
  shrunken log2 fold change: -0.223

## RRIRDRPPRLPRPRPRPCYGPRP
  shrunken log2 fold change: -0.0515

## RRIRDRPPRLPRPRPRPWCQPRP
  shrunken log2 fold change: -0.0971

## RRIRSRPPRLPRPRPRPPFVPRP
  shrunken log2 fold change: 0.148

## RRIRMRPPRLPRPRPRPAERPRP
  shrunken log2 fold change: 0.385

## RRIRYRPPRLPRPRPRPEEDPRP
  shrunken log2 fold change: -0.0024

## RRIRCRPPRLPRPRPRPGWHPRP
  shrunken log2 fold change: 0.269

## RRIRLRPPRLPRPRPRPKQEPRP
  shrunken log2 fold change: -0.00888

## RRIRSRPPRLPRPRPRPFIHPRP
  shrunken log2 fold change: -0.154

## RRIRQRPPRLPRPRPRPCLRPRP
  shrunken log2 fold change: -0.379

## RRIRGRPPRLPRPRPRPKDEPRP
  shrunken log2 fold change: 0.696

## RRIRQRPPRLPRPRPRPFEFPRP
  shrunken log2 fold change: -0.109

## RRIRHRPPRLPRPRPRPRKWPRP
  shrunken log2 fold change: -0.0137

## RRIRGRPPRLPRPRPRPPEMPRP
  shrunken log2 fold change: 1.62

## RRIRWRPPRLPRPRPRPIKVPRP
  shrunken log2 fold change: -0.146

## RRIRPRPPRLPRPRPRPAYSPRP
  shrunken log2 fold change: -0.23

## RRIRYRPPRLPRPRPRPVLLPRP
  shrunken log2 fold change: -0.109

## RRIRGRPPRLPRPRPRPPVEPRP
  shrunken log2 fold change: 0.608

## RRIRDRPPRLPRPRPRPHAIPRP
  shrunken log2 fold change: -0.0018

## RRIRWRPPRLPRPRPRPRLQPRP
  shrunken log2 fold change: 0.642

## RRIRNRPPRLPRPRPRPCNYPRP
  shrunken log2 fold change: -0.164

## RRIRERPPRLPRPRPRPAHQPRP
  shrunken log2 fold change: -0.136

## RRIRDRPPRLPRPRPRPPFWPRP
  shrunken log2 fold change: 0.185

## RRIRFRPPRLPRPRPRPTILPRP
  shrunken log2 fold change: -0.453

## RRIRPRPPRLPRPRPRPVTTPRP
  shrunken log2 fold change: -0.0302

## RRIRNRPPRLPRPRPRPMCEPRP
  shrunken log2 fold change: -0.0162

## RRIRSRPPRLPRPRPRPPEFPRP
  shrunken log2 fold change: -0.119

## RRIRQRPPRLPRPRPRPCGPPRP
  shrunken log2 fold change: -0.141

## RRIRCRPPRLPRPRPRPSHLPRP
  shrunken log2 fold change: -0.53

## RRIRYRPPRLPRPRPRPCCPPRP
  shrunken log2 fold change: -0.38

## RRIRQRPPRLPRPRPRPSTAPRP
  shrunken log2 fold change: 0.0789

## RRIRDRPPRLPRPRPRPRTYPRP
  shrunken log2 fold change: -0.126

## RRIRQRPPRLPRPRPRPYCWPRP
  shrunken log2 fold change: -0.554

## RRIRMRPPRLPRPRPRPIPMPRP
  shrunken log2 fold change: 0.414

## RRIRHRPPRLPRPRPRPCYIPRP
  shrunken log2 fold change: -0.0479

## RRIRPRPPRLPRPRPRPMPCPRP
  shrunken log2 fold change: 0.0941

## RRIRTRPPRLPRPRPRPCCKPRP
  shrunken log2 fold change: -0.279

## RRIRSRPPRLPRPRPRPYAWPRP
  shrunken log2 fold change: -0.087

## RRIRLRPPRLPRPRPRPPSRPRP
  shrunken log2 fold change: 0.175

## RRIRRRPPRLPRPRPRPHTFPRP
  shrunken log2 fold change: -0.108

## RRIRKRPPRLPRPRPRPNNMPRP
  shrunken log2 fold change: -0.304

## RRIRVRPPRLPRPRPRPIFGPRP
  shrunken log2 fold change: -0.015

## RRIRERPPRLPRPRPRPNHLPRP
  shrunken log2 fold change: 0.0486

## RRIRKRPPRLPRPRPRPHHHPRP
  shrunken log2 fold change: -0.208

## RRIRNRPPRLPRPRPRPIHLPRP
  shrunken log2 fold change: -0.73

## RRIRMRPPRLPRPRPRPFRNPRP
  shrunken log2 fold change: -0.0431

## RRIRQRPPRLPRPRPRPYVNPRP
  shrunken log2 fold change: -0.00544

## RRIRDRPPRLPRPRPRPMFSPRP
  shrunken log2 fold change: -0.142

## RRIRERPPRLPRPRPRPTYMPRP
  shrunken log2 fold change: -0.121

## RRIRIRPPRLPRPRPRPFGGPRP
  shrunken log2 fold change: -0.103

## RRIRLRPPRLPRPRPRPPKVPRP
  shrunken log2 fold change: 0.287

## RRIRCRPPRLPRPRPRPYCWPRP
  shrunken log2 fold change: -0.331

## RRIRGRPPRLPRPRPRPYTGPRP
  shrunken log2 fold change: -0.707

## RRIRERPPRLPRPRPRPRIWPRP
  shrunken log2 fold change: 0.143

## RRIRSRPPRLPRPRPRPMYPPRP
  shrunken log2 fold change: -0.124

## RRIRERPPRLPRPRPRPYAEPRP
  shrunken log2 fold change: -0.447

## RRIRCRPPRLPRPRPRPFIAPRP
  shrunken log2 fold change: -0.613

## RRIRQRPPRLPRPRPRPLYMPRP
  shrunken log2 fold change: -0.198

## RRIRDRPPRLPRPRPRPKLKPRP
  shrunken log2 fold change: -0.0223

## RRIRYRPPRLPRPRPRPGDQPRP
  shrunken log2 fold change: 0.0121

## RRIRSRPPRLPRPRPRPDRCPRP
  shrunken log2 fold change: -0.115

## RRIRSRPPRLPRPRPRPNVFPRP
  shrunken log2 fold change: -0.075

## RRIRCRPPRLPRPRPRPPKTPRP
  shrunken log2 fold change: -0.00862

## RRIRKRPPRLPRPRPRPGGCPRP
  shrunken log2 fold change: 0.809

## RRIRERPPRLPRPRPRPYNNPRP
  shrunken log2 fold change: -0.822

## RRIRFRPPRLPRPRPRPTIQPRP
  shrunken log2 fold change: -0.266

## RRIRQRPPRLPRPRPRPTTKPRP
  shrunken log2 fold change: -0.122

## RRIRVRPPRLPRPRPRPHKVPRP
  shrunken log2 fold change: -0.331

## RRIRCRPPRLPRPRPRPEYFPRP
  shrunken log2 fold change: -0.0582

## RRIRLRPPRLPRPRPRPHNSPRP
  shrunken log2 fold change: -0.492

## RRIRERPPRLPRPRPRPKHIPRP
  shrunken log2 fold change: -0.766

## RRIRRRPPRLPRPRPRPKDDPRP
  shrunken log2 fold change: 0.302

## RRIRRRPPRLPRPRPRPFCYPRP
  shrunken log2 fold change: -0.00369

## RRIRKRPPRLPRPRPRPVLQPRP
  shrunken log2 fold change: -0.0875

## RRIRGRPPRLPRPRPRPYMFPRP
  shrunken log2 fold change: 0.221

## RRIRYRPPRLPRPRPRPHKQPRP
  shrunken log2 fold change: -0.0853

## RRIRIRPPRLPRPRPRPSITPRP
  shrunken log2 fold change: 0.141

## RRIRYRPPRLPRPRPRPGEKPRP
  shrunken log2 fold change: 0.0799

## RRIRKRPPRLPRPRPRPERMPRP
  shrunken log2 fold change: 0.0818

## RRIRRRPPRLPRPRPRPLCWPRP
  shrunken log2 fold change: 0.623

## RRIRGRPPRLPRPRPRPMDSPRP
  shrunken log2 fold change: 0.318

## RRIRTRPPRLPRPRPRPRDIPRP
  shrunken log2 fold change: -0.0222

## RRIRQRPPRLPRPRPRPVKWPRP
  shrunken log2 fold change: 0.746

## RRIRIRPPRLPRPRPRPNESPRP
  shrunken log2 fold change: -0.243

## RRIRVRPPRLPRPRPRPAGNPRP
  shrunken log2 fold change: 0.141

## RRIRFRPPRLPRPRPRPMDQPRP
  shrunken log2 fold change: -0.247

## RRIRCRPPRLPRPRPRPKPAPRP
  shrunken log2 fold change: 0.288

## RRIRARPPRLPRPRPRPLSYPRP
  shrunken log2 fold change: -0.00336

## RRIRQRPPRLPRPRPRPMPCPRP
  shrunken log2 fold change: -0.00136

## RRIRSRPPRLPRPRPRPQHMPRP
  shrunken log2 fold change: -0.336

## RRIRTRPPRLPRPRPRPPMNPRP
  shrunken log2 fold change: -0.399

## RRIRQRPPRLPRPRPRPHVWPRP
  shrunken log2 fold change: 0.03

## RRIRDRPPRLPRPRPRPPRSPRP
  shrunken log2 fold change: 1.11

## RRIRMRPPRLPRPRPRPVHDPRP
  shrunken log2 fold change: 0.0188

## RRIRKRPPRLPRPRPRPKFWPRP
  shrunken log2 fold change: 0.798

## RRIRARPPRLPRPRPRPPARPRP
  shrunken log2 fold change: 0.874

## RRIRHRPPRLPRPRPRPAHHPRP
  shrunken log2 fold change: 0.178

## RRIRCRPPRLPRPRPRPCPEPRP
  shrunken log2 fold change: 1.16

## RRIRKRPPRLPRPRPRPNGTPRP
  shrunken log2 fold change: -0.0678

## RRIRTRPPRLPRPRPRPDYDPRP
  shrunken log2 fold change: 0.00888

## RRIRMRPPRLPRPRPRPHWQPRP
  shrunken log2 fold change: 0.161

## RRIRIRPPRLPRPRPRPVTFPRP
  shrunken log2 fold change: -0.00574

## RRIRKRPPRLPRPRPRPFKYPRP
  shrunken log2 fold change: -0.517

## RRIRPRPPRLPRPRPRPEGAPRP
  shrunken log2 fold change: 0.713

## RRIRRRPPRLPRPRPRPGIIPRP
  shrunken log2 fold change: 0.028

## RRIRQRPPRLPRPRPRPQPNPRP
  shrunken log2 fold change: 0.26

## RRIRARPPRLPRPRPRPFFRPRP
  shrunken log2 fold change: 0.126

## RRIRHRPPRLPRPRPRPLYYPRP
  shrunken log2 fold change: -0.611

## RRIRVRPPRLPRPRPRPKGKPRP
  shrunken log2 fold change: 0.102

## RRIRLRPPRLPRPRPRPDLYPRP
  shrunken log2 fold change: -0.0419
